Assay: soluble on expression in E. coli; label from the status in PepcDB or PDB records

Sequence | soluble on expression in E. coli
MGSDKIHHHHHHMNLKDLENPGVWYRPAPFWSWNDKLCEEELLRQIDEMYEKGYGGFFMHSRVGLVTEYLSEEWMRLVRSCAEHARKLGMLAWLYDEDKWPSGFAGGIVPLEKPEHRHKYLTLLKKDQIKPEDEILKKIERDGEEFYVVKRVMKLGDPWFNGTCYVDLLSRETTEAFLRSTHERYKKSCGDLFRVSIPGIFTDEPTYLRVHHPKETTLPWTERFPEEFLRRKGYDIRDHLEELFFNVKDYMKVRYDFFDVATSLFIENFTIPYAKWCEENGIFMTGHYMAEDTLRGQVEWIGAAMPHYEYMQIPGIDKLARHLEQVVTIKQVSSAAEQLGKKWVLCETFGTTGQHVSFLHRKWIADWQAVLGVTYINPHLSLYSMRGERKRDYPPNLFYQQPWWKNERFLSDYFARLNHIVTQGKREVKVLMIHPISSAWCVYSKFDDEIDKLNELFDTITKELVANKIDFHFGDEMILSKHGRVKEAKLRVGEYEYEVVVLPPLLNLKSSTVELLNSLAENGGKVFVLKDFRYGRFFPERVEGKKGRIEFLKKARVFETLEDLIEELKPFFSVDVLDTKTKENAKAVIAQKRVLEDGSYLLFLANTDIDREVHCHLELKEKRKHTYAIDLFNFKLVELKENEFVMFPASSVCIWVTDEEVPAEDEKVVSTGVLLEKEFDFETALNDFEVKMNSFNVLPVDRVEYFEAGGRVFRNEFVSKIWYEFYRLPDGTPFRVEYSFEVRKKPQKLFLVVECAENLDRITVNGREVRYERKSCIFNEEQNFLDVNFGKMEITDLVREGKNTVVLEGRKENNITGPGCHTRVKDPENHRPTEVETIYLVGDFSLVNVDETRYVIDAPKIPDHRDITRDGYPFYVGSFTLKKIFECKKDPGKRYFLKLNGVEAASVEVILNGKFLGVLFWRPFMIDITDALRNGKNELQLVLTNTLFNLIEANHKADVLEETFRRPKSFIDFEHHTDRYILLPFGLENVAVLSSSSR | not soluble
MGSDKIHHHHHHMNLPLQGIKVVELGQLIAGPFAAKILAEFGAEVIKVEPPLTGDPLRKWRLLHNGTSVWWAVQSRNKQSVTLDLRQPQAQEMVRRLIRDADVLVENFRPGTLEGWGLSWEDLHALNPKLIMLRVSGYGQTGPYRDRPGFGVIGEAMGGLRHLSGEVGRTPVRVGVSIGDSLAALHGVIGILLALRHREQNAGEGQQIDVALYESVFNMMESLIPEYSVFNTVREPAGSSLPGIAPTNAYRCNDGKYALIAGNGDSIYRRLMEKIGRPDLANDPQLEHNDGRVRHVARIDAAISTWTAERSLDDVLAALTDARIPAGKIYDAADIASDPHYQARDMLLQSALDDGTPVTVPGIVPKLQDTPGQIRSPAPTLGQHTDAVLQAHGIDAATREEWRRLGII | not soluble
MGSDKIHHHHHHMNLQYVLLNDNSWQSQGEWQTPDTPFMSFAFWQALSDTGAIGEEAGWLPIYILVHRVESDDDFTVQQSLSSVEASIKVKQPVAVLPVFIKGHHRGEFVFDHSWAQAYAQYGLDYYPRLVTSAPYTPITGQRLWLAEGETLDAEIINTAIKGVDDIAQQVDASGWHGLFVTPEMATIATTLMPFNSHTRSAGQSHGVDSASNTSMNIASNTPVLERQGCQFLWQNKNLSQNDQLFADFEEFLATLKAKKRKTIRAERRKVAEQGITCQRKCGDEIIESDWKTFYHCYVMTYAVRGQQPYLSIDFFEALAQNMAEHVMLAQALDAGGEIIASSLFLYDKPDNKMATLYGRYWGALGEYDSLHFELCYYQGIEFAIEQGLHYFDPGTQGEHKLIRGFIPTTTHSLHRIYDARFVPAIADFCHKDRLHMAQYREQAFEALPFNIDNMPTFDNNE | not soluble
MGSDKIHHHHHHMNLVAHAQNTEPFEGVMKWAITVDIVDSKVADSYQTEIQSEDNSEVNQAIKELEQQLKDPEMQEMLLENPTIKNSMLKKLQQLKAAQTTNQENSTNSIFPSALSIFLKNNNSFTKIDGGSMVKLTGNMLYLNTNKNTYFIKDKTSTYSVINDTARLNTNDSLIALIATTDTTMILDCICIKYILTTKENNEIKTSYIWITNDLPSMNSAAFRSLGFMDGNLHHEAFKEMKGIPMRIEIFEKGLKMNMEVSEISMELVADTYFTIPSNYRESPFGF | not soluble
MGSDKIHHHHHHMNLYVGLDVGTTGVKGILVNEKGEILATANERLTMFTPQPAWAEQDPLSWWEAVKKILKNLSERSKEMGGKIRAISTSGQMHSLVAIDDNGKVLRNAILWCDQRTYKECEEATQILGGEENVLKLVGNPILPGFTLPKILWIRKHEPEIYGKISKIMLPKDFINYMLTGEVKTEHSDASGTVMYSVSKMEWNKDVLKELNIPESVLPEIIPSNGVVGNVKPEVASDLGLSEDTLVIGGGADNACAALGIAVVEPGDVMVSLGTSGTVLAPTKGNQPDPKGRVHFFAHTVPETRYHMGVMLSATYSLEWFKEKFLSEDYETINEEVDKIPAGSNGIIFLPYLNGERTPHRDPFARGVFFGISSYNTKWDMVRAIFEGVAFGIKDSFDILRELKVVLNSVRITGGGSKSRVWNKMLADMTGLRIQKPAVDEGASYGAAILAVSGSMGENPAKISKEWFRVKSYTDPAVENTETYEKLHEKFKKLYTSLKEMFRS | not soluble
MGSDKIHHHHHHMNPQLLRVTNRIIERSRETRSAYLARIEQAKTSTVHRSQLACGNLAHGFAACQPEDKASLKSMLRNNIAIITSYNDMLSAHQPYEHYPEIIRKALHEANAVGQVAGGVPAMCDGVTQGQDGMELSLLSREVIAMSAAVGLSHNMFDGALFLGVCDKIVPGLTMAALSFGHLPAVFVPSGPMASGLPNKEKVRIRQLYAEGKVDRMALLESEAASYHAPGTCTFYGTANTNQMVVEFMGMQLPGSSFVHPDSPLRDALTAAAARQVTRMTGNGNEWMPIGKMIDEKVVVNGIVALLATGGSTNHTMHLVAMARAAGIQINWDDFSDLSDVVPLMARLYPNGPADINHFQAAGGVPVLVRELLKAGLLHEDVNTVAGFGLSRYTLEPWLNNGELDWREGAEKSLDSNVIASFEQPFSHHGGTKVLSGNLGRAVMKTSAVPVENQVIEAPAVVFESQHDVMPAFEAGLLDRDCVVVVRHQGPKANGMPELHKLMPPLGVLLDRCFKIALVTDGRLSGASGKVPSAIHVTPEAYDGGLLAKVRDGDIIRVNGQTGELTLLVDEAELAAREPHIPDLSASRVGTGRELFSALREKLSGAEQGATCITF | not soluble
MGSDKIHHHHHHMNQKTRLTLILDELKTHPSLSLKDIMQLTGTSRDTARRDIVKLAAHNLAERNYGGISRPNTFNKLDQYLDRDDDLLQTKRALAHTASSYLLNDALLFLDISTTVACLPQYLQSKHPGMIVTNSLDIADQALRHSNFQTRILGGTLDAQQRCVQGADSILALHKFRFTTTVLSCAGLTADGVYYAYESDIALKETLRAQSDRLVLLFDHTKVNVSHNFNLLALSDFDYFVTDQPLPDNLATKIAPDKLIYL | not soluble
MGSDKIHHHHHHMNRKGNLSMTTQLQHLTLPEDIQQKLLSYKEQPISPEFQSLIGTSGYEAEDEAILFDAIIALAMGKNVLLKGPTGSGKTKLAETLSSYFHKPMHSVNCSVDLDAEALVGYKTIENQSGQATIEFVSGPVTKAMKEGHFLYIDEINMAKPETLPILNGVLDYRKMMTNPFTGEVIRAKSGFGVIAAINEGYVGTVPLNEALKNRFVIIDVPYIKGELLKQVLMSQSALKDEKLIDRFITLSSDLIVQANNGQVSEEAASIRALIDTCDLAAYIPPRRAIERGIVEKLDDDREKAAVRNIAETLFE | not soluble
MGSDKIHHHHHHMNRLRYSVNLSYEILDPTGDFLLIVEAAKTARQSVVSERLALTPPAHAARYTDPLGNRLLRIRANKGPLAIRYEAVVDIDHRLDDGMSLTEVPVAELPFDVLSYLAPSRYCESDRMMEFAMREFGSMRPGYSRVYAIREWVRNHVRFLSRSTNERTSAIDTIVERTGVCRDFSHLMIAICRALSIPARMSSSVDYGADPALGAPDFHAVVEVFLSGGWYLLDPSGVSIPTGLLRIGTGRDAADIPFAAIFGKVESKRPFIEIQPIADPVAGIGLPLATTSAISTW | not soluble
MGSDKIHHHHHHMNSNQLAFTIPISREMINIANKLSQQQRNEQKTREVYLNTLALLAVEFFCQCMEIETEFSKSYGLDSVVLSLMNTASIFIKDKGLLECRPVLPREDFCEIPAEILSERIGYMVVEIDELDRQAKIVGFVESVSNEKLALSKLGSLQDFLIYLQKLQKIENYDPSNPDISEIARNQLNESIVKLSKWFKGLLDSGWEYELAIAKDIPNVLAVPKDISPVNVTDKEEVGGARIIHLMHLSEPVLLILRQTRLSPDEIEIILRLYPASESIFLLDGIKMTLLDEKDNPIRQLEKQAKASNWLQLRFKGNVGDKFSLKISFRGDSVITKFII | not soluble
MGSDKIHHHHHHMNTPLYKALIQHARRNSHSFHVPGHHNGDVFFDDAKSIFDPLLTIDVTELAGLDDLHHPSGVIKEAQELASQLYGSAESFFLVNGTTVGNLAMILSVCEPGDTILVQRNCHKSVFHAVDLSGAEPVYLAPDVDSAMHVPTHVPLGTIKEALEAYPDAKGLVLTNPTYYGHSADLTEIITEAHHYGIPVLVDEAHGAHFILGEPFPVSALKMGADIVVQSAHKTLPAMTMGSYLHLNSSCRINRDRVAEYLNRLQSSSPSYPIMASLDIARAYVQHIIEEQKLSDILQRIETLKQTFDSLTNAEAVNPANPLIITDPLKLTIRSKRGHSGYTLQSILERANIFTELADENQVLLVLPLGGKRRINAEIIRSIDEEIEKTPPDQTFVSAEWGVQPVTVLPYPKKVLHSFKKEYVSFEEAAGRLNAEDIIPYPPGIPMIMAGERITKESVQKLSRLISMKTHVQGNMKIKEKQLLVYIEEEKS | not soluble
MGSDKIHHHHHHMNTSISASWGRYINAIPPRSGEAALAPLSSFVDGQCIYSFGERADQVYQVEFGAVRVYRLAANGRRQILAFHFGGNWFGLQSRDRHSSNAEAIGVTGVRCISLQEEPLFRPALFSAALDNVSAAQEHQLVIGRQSAIERVAAFLLEMSERSGYSRRFELSMSRVDVADYLALTVETVSRSLTKLKHRGFIELHGARGIELVGYRALQNLCL | not soluble
MGSDKIHHHHHHMNTTASPSRLLGVGLYTASQASSYTGIPAKDIRRWMFGYSASGVEHPGLWAPEIAFLDDKLLGFHDLLEIRFVHAFRQHGVSLQAIRSASLQAREMFGQRYPFTCRRFQTDGRDIFATVLDETGDEALLDLVKRQYAFKQVITPSLYEGIDYAGEESAKRWYPVKRSKAVVLDPARNFGKPVLTITGIDTAAIYHSYLAEGQSAKRVALLYEIPPAAVEAAVNFEHRIAA | not soluble
MGSDKIHHHHHHMNVLNDSVDDTVQKKVAFFLPTLNIGGIERVFITYANYLIDKKYNIYFILCKRRGELLSLLDSNIKLYHLGNVQLKFSFLKLRQSLKEIQPDVIVSGGDFPNLILIVSSLGLKKVPKIIISQHNYYNVETRRLGWWAYGTCFFMKKIYPKADKIIAVSDGIREFLIKKIHISADRIIKLPNPIDIKGIKEKSLELLDITLPDRYILFVGRLSYVKNLFFLLDAFEMGKLDNNSLVIVGDGEMRNALMKKAKKMHKADNIIFLGAMENPLPILKKAQLLVLPSFSEAYPTILLEALCLYIPVVSTPTKGAKEILHNVSGTYISTDCYNIEEFARLMERGVKERISHKVIDDKIGLNSIENIGLRIQREIIEDNRL | not soluble
MGSDKIHHHHHHMNWLNLRAIVPSDKQNMPNKKNKAAFARTVTKNGAPDVSDIKNSYDDLMYESGAFSQTAINNLEARARLMGLQPAPAANAKVLELGCSMGGNIITQALYYPDAEFTGIDLSGRQVAQGNAIIEKMGLKNVRLEEKDILTVDESFGKFDYIIVHGIWSWVPDAVKDKIFSICRNNLTEHGIAYISYNVYPGWKRQEQLREIMQFSGRDVLEEPLEARTRKGLDALKALAEILENDKGLGGGGKLPAIQKILNHNFYYIAHEYMEAFNDPIYVNGFIEWANRHRLAYIGDTDLHVSFVSWMAEHTRERILALAGGDYIAKEFYSDILSDRQFRRSLLCREEVGDTVRRDESVAVEVIESLNFRPARGETINFDENDTLLSGIRDVMKTGEPFKTEDVAENLARRFPGLTFDRMKINSQLLLQTILGRFSVSSDNAGKPFFEDHKTYVPARFTDYVAAFVEHGAEAFVRPANRYNESTPSFGYGHLYIMRQLSRPTSKQAVIDAVAENLNIVSTTPDGLTFHPPAEVYVEEILADLADRHFLVSAD | not soluble

— the DeepSol protein solubility set
